# In patent publication US20200392198A1 (UNIVERSITY OF COPENHAGEN, published 2020):
# Where two headings read alike, the source gives them in different places. Ends that are not written are not given here. * marks the point of attachment. Palmitoyl = CCCCCCCCCCCCCCCC(=O)*
# T1: human GIP receptor (human, UniProt P48546 22-466)
# T1 sequence (looked up): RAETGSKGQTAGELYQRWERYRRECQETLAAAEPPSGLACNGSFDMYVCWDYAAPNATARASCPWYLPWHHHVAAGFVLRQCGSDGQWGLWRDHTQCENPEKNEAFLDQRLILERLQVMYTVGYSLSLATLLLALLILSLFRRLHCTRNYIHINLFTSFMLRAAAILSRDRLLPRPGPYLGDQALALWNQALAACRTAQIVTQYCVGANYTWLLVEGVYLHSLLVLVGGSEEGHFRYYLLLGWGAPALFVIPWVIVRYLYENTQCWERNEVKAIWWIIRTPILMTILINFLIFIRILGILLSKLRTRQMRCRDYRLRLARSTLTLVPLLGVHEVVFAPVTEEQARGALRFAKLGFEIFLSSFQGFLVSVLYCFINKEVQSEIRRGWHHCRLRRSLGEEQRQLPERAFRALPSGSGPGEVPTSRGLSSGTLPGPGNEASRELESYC
# T2: human GLP-2 receptor (human, UniProt O95838 1-553)
# T2 sequence (looked up): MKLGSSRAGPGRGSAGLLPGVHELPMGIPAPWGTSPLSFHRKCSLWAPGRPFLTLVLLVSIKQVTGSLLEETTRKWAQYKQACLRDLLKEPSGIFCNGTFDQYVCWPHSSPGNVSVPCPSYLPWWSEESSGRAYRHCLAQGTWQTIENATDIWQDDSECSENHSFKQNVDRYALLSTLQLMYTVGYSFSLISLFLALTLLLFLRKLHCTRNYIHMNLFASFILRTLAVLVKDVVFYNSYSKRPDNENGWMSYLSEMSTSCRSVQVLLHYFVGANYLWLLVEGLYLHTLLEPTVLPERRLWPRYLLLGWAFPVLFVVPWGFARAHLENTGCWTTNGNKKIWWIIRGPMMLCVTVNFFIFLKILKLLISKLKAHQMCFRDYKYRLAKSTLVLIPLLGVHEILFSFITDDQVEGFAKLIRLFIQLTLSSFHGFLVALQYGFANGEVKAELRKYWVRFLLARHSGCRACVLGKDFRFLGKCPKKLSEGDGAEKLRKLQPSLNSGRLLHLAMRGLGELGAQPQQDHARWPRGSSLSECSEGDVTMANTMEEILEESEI
# Experiments:
# Experiment in all cases: cell-based or functional assay
# [1] = biological target: T1, human GIP receptor
# [2] = biological target: T2, human GLP-2 receptor
# [3] = biological target: T1, human GIP receptor; remark: listed apart in the source
# [4] = biological target: T2, human GLP-2 receptor; remark: listed apart in the source
Binder,EC50 (cAMP) [1],"Emax (10 µM), % of native GIP [1]",fold (EC50 vs native GIP) [1],logEC50 (cAMP) [1],EC50 (cAMP) [2],"Emax (10 µM), % of native GLP-2 [2]",fold (EC50 vs native GLP-2) [2],logEC50 (cAMP) [2],"Emax (1 µM), % of native GIP [1]","Emax (1 µM), % of native GLP-2 [2]",EC50 (cAMP) [3],"Emax (10 µM), % of native GIP [3]",logEC50 (cAMP) [3],fold (EC50 vs native GIP) [3],EC50 (cAMP) [4],"Emax (10 µM), % of native GLP-2 [4]",fold (EC50 vs native GLP-2) [4],logEC50 (cAMP) [4]
HVDGTFISDYSTILDNLAARDFINWLIQTKITD [GIP-GLP-2 co-agonist 12],1.1 nM,96%,12 fold,-8.96,25 nM,81%,21 fold,-7.6,–,–,–,–,–,–,–,–,–,–
HADGTFSSDYSTILDNLAARDFINWLIQTKITD [GIP-GLP-2 co-agonist 13],12 nM,91%,135 fold,-7.92,11 nM,99%,9.2 fold,-7.95,–,–,–,–,–,–,–,–,–,–
HADGTFIDDYSTILDNLAARDFINWLIQTKITD [GIP-GLP-2 co-agonist 14],2.4 nM,94%,27 fold,-8.63,11 nM,90%,9.2 fold,-7.97,–,–,–,–,–,–,–,–,–,–
HADGTFISEYSTILDNLAARDFINWLIQTKITD [GIP-GLP-2 co-agonist 15],3.2 nM,92%,36 fold,-8.5,6.7 nM,104%,5.6 fold,-8.18,–,–,–,–,–,–,–,–,–,–
HAEGTFISDYSTILDNLAARDFINWLIQTKITD [GIP-GLP-2 co-agonist 1],30 nM,–,337 fold,-7.53,98 nM,–,82 fold,-7.01,100%,93%,–,–,–,–,–,–,–,–
HADGTFISDYSTILDNLAARDFINWLIQTKGTD [GIP-GLP-2 co-agonist 16],0.6 nM,95%,6.7 fold,-9.22,82 nM,74%,68 fold,-7.06,–,–,–,–,–,–,–,–,–,–
HADGTFISDYSTILDNLAARDFINWLIQTKIKD [GIP-GLP-2 co-agonist 17],0.4 nM,95%,4.5 fold,-9.39,25 nM,88%,21 fold,-7.61,–,–,–,–,–,–,–,–,–,–
HADGTFISDYSTILDNLAARDFINWLIQTKITK [GIP-GLP-2 co-agonist 18],0.66 nM,89%,7.4 fold,-9.18,5.3 nM,94%,4.4 fold,-8.28,–,–,–,–,–,–,–,–,–,–
HADGTFISDYSTILDNLAARDFINWLIQTKGKK [GIP-GLP-2 co-agonist 19],0.25 nM,93%,–,-9.6,–,91%,–,–,–,–,–,–,–,–,–,–,–,–
HADGSFSDEMNTILDNLAARDFINWLIQTKITD (ligand) [human native GLP-2],56 nM,22%,–,-7.25,–,–,–,–,–,–,56 nM,22%,-7.25,–,–,–,–,–
HADGTFSSDYSTILDNLAAKDFINWLIQTKITD [GIP-GLP-2 co-agonist 20],–,–,–,–,–,–,–,–,–,–,0.59 nM,98%,-9.23,6.6 fold,1.2 nM,80%,1 fold,-8.92
HADGTFSSDYSTILDNLAAK(Palmitoyl)DFINWLIQTKITD [GIP-GLP-2 co-agonist 21],–,–,–,–,–,–,–,–,–,–,34 nM,94%,-7.47,381 fold,6 nM,75%,5 fold,-8.22
HAEGTFISDYSTILDNLAARDFINWLIQTKITDNDWKHNITQ [GIP-GLP-2 co-agonist 2],12 nM,–,135 fold,-7.92,145 nM,–,121 fold,-6.84,100%,93%,–,–,–,–,–,–,–,–
HADGTFISDYSTILDNLAARDFINWLIQTKITD [GIP-GLP-2 co-agonist 3],0.11 nM,100%,1.2 fold,-9.97,21 nM,100%,18 fold,-7.67,–,–,–,–,–,–,–,–,–,–
HAEGSFISDYSTILDNLAARDFINWLIQTKITD [GIP-GLP-2 co-agonist 4],38 nM,83%,427 fold,-7.42,25 nM,90%,21 fold,-7.59,–,–,–,–,–,–,–,–,–,–
HAEGTFSDEYSTILDNLAARDFINWLIQTKITD [GIP-GLP-2 co-agonist 5],456 nM,75%,5120 fold,-6.34,6.2 nM,91%,5.2 fold,-8.21,–,–,–,–,–,–,–,–,–,–
HAEGTFISDMNTILDNLAARDFINWLIQTKITD [GIP-GLP-2 co-agonist 6],172 nM,83%,1930 fold,-6.77,60 nM,70%,50 fold,-7.22,–,–,–,–,–,–,–,–,–,–
HAEGTFISDYSIAMDKLAARDFINWLIQTKITD [GIP-GLP-2 co-agonist 7],26 nM,92%,292 fold,-7.59,351 nM,78%,293 fold,-6.45,–,–,–,–,–,–,–,–,–,–
HAEGTFISDYSTILDNIHQQDFINWLIQTKITD [GIP-GLP-2 co-agonist 8],5.9 nM,100%,66 fold,-8.23,–,22%,–,> -5,–,–,–,–,–,–,–,–,–,–
HAEGTFISDYSTILDNLAARDFVNWLLAQKITD [GIP-GLP-2 co-agonist 9],3.2 nM,100%,36 fold,-8.5,123 nM,67%,103 fold,-6.91,–,–,–,–,–,–,–,–,–,–
HAEGTFISDYSTILDNLAARDFINWLIQTKGKK [GIP-GLP-2 co-agonist 10],5.4 nM,100%,61 fold,-8.27,22 nM,77%,18 fold,-7.66,–,–,–,–,–,–,–,–,–,–
HGDGTFISDYSTILDNLAARDFINWLIQTKITD [GIP-GLP-2 co-agonist 11],3.2 nM,95%,36 fold,-8.5,24 nM,87%,20 fold,-7.62,–,–,–,–,–,–,–,–,–,–
